Drawing on patent publication US20090275637, this text covers binding for one sequence.

This series addresses T1, PTP1B catalytic domain (321 residues), GST fusion (Homo sapiens) (UniProt P18031).
T1 sequence: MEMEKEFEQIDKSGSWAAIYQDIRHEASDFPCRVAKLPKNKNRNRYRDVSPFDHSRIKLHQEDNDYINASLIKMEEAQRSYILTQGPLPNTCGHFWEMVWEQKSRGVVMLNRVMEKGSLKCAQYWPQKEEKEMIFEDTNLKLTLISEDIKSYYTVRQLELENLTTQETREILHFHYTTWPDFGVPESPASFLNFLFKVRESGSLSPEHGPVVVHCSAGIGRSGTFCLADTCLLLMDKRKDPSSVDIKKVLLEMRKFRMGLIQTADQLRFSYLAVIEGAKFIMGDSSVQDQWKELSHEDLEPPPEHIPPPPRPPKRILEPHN
Nature of the series: filter. Conditions: round 0 pool, 200-400 nM PTP1B, 125 mM NaCl, 5 mM MgCl2.

Where only a bound is given, the exact number is not on record here.

“GGGAAUGGAUCCACAUCUACGAAUUCNNNNNNNNNNNNNNNNNNNNNNNNNNNNNNUUCACUGCAGACUUGACGAAGCUU [N30 initial pool]”: the binding was less than 1 % retained.
